Patent US20230065562A1, “DUAL CONTROLS FOR THERAPEUTIC CELL ACTIVATION OR ELIMINATION” (Bellicum Pharmaceuticals, Inc., priority 2015, published 2023)
Entries after “also recorded” stand apart in the source; their conditions may differ.

Test system: HEK293T/16 cells
Assay: Secreted alkaline phosphatase (SEAP)-based surrogate killing assay of iCasp9 mutants
Type: cell-based, human
Conditions: SEAP assay without AP1903
Procedure: Early passage HEK293T/16 cells (ATCC, Manassas, Va.) were maintained in IMDM, GlutaMAX™ (Life Technologies, Carlsbad, Calif.) supplemented with 10% FBS, 100 U/mL penicillin, and 100 […] until transfection in a humidified, 37° C., 5% CO2/95% air atmosphere. Cells in logarithmic-phase growth were transiently transfected with 800 ng to 2 μg of expression plasmid encoding iCasp9 mutants and 500 ng of an expression plasmid encoding SRα promoter driven SEAP per million cells in 15-mL conical tubes. […] GeneJammer® Transfection Reagent at a ratio of 3 μl per ug of plasmid DNA was used to transiently transfect HEK293T/16 cells in the absence of antibiotics. 100 μl or 2 mL of the transfection mixture was added to each well in 96-well or 6-well plate, respectively.
Briefly, after 65° C. heat denaturation for 45 minutes to reduce background caused by endogenous (and serum-derived) alkaline phosphatases that are sensitive to heat, 5 μl of supernatants was added to 95 μl of PBS and added to 100 μl of substrate buffer, containing 1 μl of 100 mM 4-methylumbelliferyl phosphate (4-MUP; Sigma, St. Louis, Mo.) re-suspended in 2 M diethanolamine. Hydrolysis of 4-MUP by SEAP produces a fluorescent […] with excitation/emission (355/460 nm), which can be easily measured. Assays were performed in black opaque 96-well plates to minimize fluorescence leakage between wells. […] of the mixture was seeded onto each well of a 96-well plate. […] For the assay, 4-methylumbelliferyl phosphate substrate was hydrolyzed by SEAP to 4-methylumbelliferon, a metabolite that can be excited with 364 nm and detected with an emission filter of 448 nm. Since SEAP is used as a marker for cell viability, reduced SEAP reading corresponds with increased iCaspase-9 activities.

Molecule | Basal Activity (relative to wild type/unmodified Caspase-9)
T317C: modified iCasp9, T317C (protein) VDGFGDVGALESLRGNADLAYILSMEPCGHCLIINNVNFCRESGLRTRTGSNIDCEKLRRRFSSLHFMVEVKGDLTAKKMVLALLELARQDHGALDCCVVVILSHGCQASHLQFPGAVYGTDGCPVSVEKIVNIFNGTSCPSLGGKPKLFFIQACGGEQKDHGFEVASTSPEDESPGSNPEPDACPFQEGLRTFDQLDAISSLPTPSDIFVSYSTFPGFVSWRDPKSGSWYVETLDDIFEQWAHSEDLQSLLLRVANAVSVKGIYKQMPGCFNFLRKKLFFKTSASRA | no effect
A316G: modified iCasp9, A316G (protein) VDGFGDVGALESLRGNADLAYILSMEPCGHCLIINNVNFCRESGLRTRTGSNIDCEKLRRRFSSLHFMVEVKGDLTAKKMVLALLELARQDHGALDCCVVVILSHGCQASHLQFPGAVYGTDGCPVSVEKIVNIFNGTSCPSLGGKPKLFFIQACGGEQKDHGFEVASTSPEDESPGSNPEPDGTPFQEGLRTFDQLDAISSLPTPSDIFVSYSTFPGFVSWRDPKSGSWYVETLDDIFEQWAHSEDLQSLLLRVANAVSVKGIYKQMPGCFNFLRKKLFFKTSASRA | lower basal activity; also recorded: Decreased
S196A: modified iCasp9, S196A (protein) VDGFGDVGALESLRGNADLAYILSMEPCGHCLIINNVNFCRESGLRTRTGSNIDCEKLRRRFSALHFMVEVKGDLTAKKMVLALLELARQDHGALDCCVVVILSHGCQASHLQFPGAVYGTDGCPVSVEKIVNIFNGTSCPSLGGKPKLFFIQACGGEQKDHGFEVASTSPEDESPGSNPEPDATPFQEGLRTFDQLDAISSLPTPSDIFVSYSTFPGFVSWRDPKSGSWYVETLDDIFEQWAHSEDLQSLLLRVANAVSVKGIYKQMPGCFNFLRKKLFFKTSASRA | Decreased
D330V: modified iCasp9, D330V (protein) VDGFGDVGALESLRGNADLAYILSMEPCGHCLIINNVNFCRESGLRTRTGSNIDCEKLRRRFSSLHFMVEVKGDLTAKKMVLALLELARQDHGALDCCVVVILSHGCQASHLQFPGAVYGTDGCPVSVEKIVNIFNGTSCPSLGGKPKLFFIQACGGEQKDHGFEVASTSPEDESPGSNPEPDATPFQEGLRTFDQLVAISSLPTPSDIFVSYSTFPGFVSWRDPKSGSWYVETLDDIFEQWAHSEDLQSLLLRVANAVSVKGIYKQMPGCFNFLRKKLFFKTSASRA | less basal activity than wild type Caspase-9; also recorded: Decreased
D330N: modified iCasp9, D330N (protein) VDGFGDVGALESLRGNADLAYILSMEPCGHCLIINNVNFCRESGLRTRTGSNIDCEKLRRRFSSLHFMVEVKGDLTAKKMVLALLELARQDHGALDCCVVVILSHGCQASHLQFPGAVYGTDGCPVSVEKIVNIFNGTSCPSLGGKPKLFFIQACGGEQKDHGFEVASTSPEDESPGSNPEPDATPFQEGLRTFDQLNAISSLPTPSDIFVSYSTFPGFVSWRDPKSGSWYVETLDDIFEQWAHSEDLQSLLLRVANAVSVKGIYKQMPGCFNFLRKKLFFKTSASRA | less basal activity than wild type Caspase-9; also recorded: Decreased
D330S: modified iCasp9, D330S (protein) VDGFGDVGALESLRGNADLAYILSMEPCGHCLIINNVNFCRESGLRTRTGSNIDCEKLRRRFSSLHFMVEVKGDLTAKKMVLALLELARQDHGALDCCVVVILSHGCQASHLQFPGAVYGTDGCPVSVEKIVNIFNGTSCPSLGGKPKLFFIQACGGEQKDHGFEVASTSPEDESPGSNPEPDATPFQEGLRTFDQLSAISSLPTPSDIFVSYSTFPGFVSWRDPKSGSWYVETLDDIFEQWAHSEDLQSLLLRVANAVSVKGIYKQMPGCFNFLRKKLFFKTSASRA | less basal activity than wild type Caspase-9; also recorded: Decreased
D330E: modified iCasp9, D330E (protein) VDGFGDVGALESLRGNADLAYILSMEPCGHCLIINNVNFCRESGLRTRTGSNIDCEKLRRRFSSLHFMVEVKGDLTAKKMVLALLELARQDHGALDCCVVVILSHGCQASHLQFPGAVYGTDGCPVSVEKIVNIFNGTSCPSLGGKPKLFFIQACGGEQKDHGFEVASTSPEDESPGSNPEPDATPFQEGLRTFDQLEAISSLPTPSDIFVSYSTFPGFVSWRDPKSGSWYVETLDDIFEQWAHSEDLQSLLLRVANAVSVKGIYKQMPGCFNFLRKKLFFKTSASRA | less basal activity than wild type Caspase-9; also recorded: Decreased
D330G: modified iCasp9, D330G (protein) VDGFGDVGALESLRGNADLAYILSMEPCGHCLIINNVNFCRESGLRTRTGSNIDCEKLRRRFSSLHFMVEVKGDLTAKKMVLALLELARQDHGALDCCVVVILSHGCQASHLQFPGAVYGTDGCPVSVEKIVNIFNGTSCPSLGGKPKLFFIQACGGEQKDHGFEVASTSPEDESPGSNPEPDATPFQEGLRTFDQLGAISSLPTPSDIFVSYSTFPGFVSWRDPKSGSWYVETLDDIFEQWAHSEDLQSLLLRVANAVSVKGIYKQMPGCFNFLRKKLFFKTSASRA | less basal activity than wild type Caspase-9; also recorded: Decreased
L329E: modified iCasp9, L329E (protein) VDGFGDVGALESLRGNADLAYILSMEPCGHCLIINNVNFCRESGLRTRTGSNIDCEKLRRRFSSLHFMVEVKGDLTAKKMVLALLELARQDHGALDCCVVVILSHGCQASHLQFPGAVYGTDGCPVSVEKIVNIFNGTSCPSLGGKPKLFFIQACGGEQKDHGFEVASTSPEDESPGSNPEPDATPFQEGLRTFDQEDAISSLPTPSDIFVSYSTFPGFVSWRDPKSGSWYVETLDDIFEQWAHSEDLQSLLLRVANAVSVKGIYKQMPGCFNFLRKKLFFKTSASRA | Decreased
S183A: modified iCasp9, S183A (protein) VDGFGDVGALESLRGNADLAYILSMEPCGHCLIINNVNFCRESGLRTRTGANIDCEKLRRRFSSLHFMVEVKGDLTAKKMVLALLELARQDHGALDCCVVVILSHGCQASHLQFPGAVYGTDGCPVSVEKIVNIFNGTSCPSLGGKPKLFFIQACGGEQKDHGFEVASTSPEDESPGSNPEPDATPFQEGLRTFDQLDAISSLPTPSDIFVSYSTFPGFVSWRDPKSGSWYVETLDDIFEQWAHSEDLQSLLLRVANAVSVKGIYKQMPGCFNFLRKKLFFKTSASRA | Decreased
T317A: modified iCasp9, T317A (protein) VDGFGDVGALESLRGNADLAYILSMEPCGHCLIINNVNFCRESGLRTRTGSNIDCEKLRRRFSSLHFMVEVKGDLTAKKMVLALLELARQDHGALDCCVVVILSHGCQASHLQFPGAVYGTDGCPVSVEKIVNIFNGTSCPSLGGKPKLFFIQACGGEQKDHGFEVASTSPEDESPGSNPEPDAAPFQEGLRTFDQLDAISSLPTPSDIFVSYSTFPGFVSWRDPKSGSWYVETLDDIFEQWAHSEDLQSLLLRVANAVSVKGIYKQMPGCFNFLRKKLFFKTSASRA | lower basal activity; also recorded: reduce basal activity; also recorded: Decreased
^316ATPF^319AVPI: modified iCasp9, ATPF replaced by SMAC/Diablo AVPI (protein, UniProt P55211 1-416, looked up, variant T317V F319I, FKBP12-F36V fusion (iCasp9), CARD deleted) MDEADRRLLRRCRLRLVEELQVDQLWDALLSRELFRPHMIEDIQRAGSGSRRDQARQLIIDLETRGSQALPLFISCLEDTGQDMLASFLRTNRQAAKLSKPTLENLTPVVLRPEIRKPEVLRPETPRPVDIGSGGFGDVGALESLRGNADLAYILSMEPCGHCLIINNVNFCRESGLRTRTGSNIDCEKLRRRFSSLHFMVEVKGDLTAKKMVLALLELAQQDHGALDCCVVVILSHGCQASHLQFPGAVYGTDGCPVSVEKIVNIFNGTSCPSLGGKPKLFFIQACGGEQKDHGFEVASTSPEDESPGSNPEPDAVPIQEGLRTFDQLDAISSLPTPSDIFVSYSTFPGFVSWRDPKSGSWYVETLDDIFEQWAHSEDLQSLLLRVANAVSVKGIYKQMPGCFNFLRKKLFFKTS | no effect
F319A: modified iCasp9, F319A (protein, UniProt P55211 1-416, looked up, variant F319A, FKBP12-F36V fusion (iCasp9), CARD deleted) MDEADRRLLRRCRLRLVEELQVDQLWDALLSRELFRPHMIEDIQRAGSGSRRDQARQLIIDLETRGSQALPLFISCLEDTGQDMLASFLRTNRQAAKLSKPTLENLTPVVLRPEIRKPEVLRPETPRPVDIGSGGFGDVGALESLRGNADLAYILSMEPCGHCLIINNVNFCRESGLRTRTGSNIDCEKLRRRFSSLHFMVEVKGDLTAKKMVLALLELAQQDHGALDCCVVVILSHGCQASHLQFPGAVYGTDGCPVSVEKIVNIFNGTSCPSLGGKPKLFFIQACGGEQKDHGFEVASTSPEDESPGSNPEPDATPAQEGLRTFDQLDAISSLPTPSDIFVSYSTFPGFVSWRDPKSGSWYVETLDDIFEQWAHSEDLQSLLLRVANAVSVKGIYKQMPGCFNFLRKKLFFKTS | no effect
